Data as given in patent US20240199757A1 (UNIVERSITY OF CHICAGO, published 2024).
Like-named read-outs stand apart in the source and are kept apart here.

T1: Full-length murine NT5E (recombinant) (murine, UniProt Q61503 29-552)
T1 construct: also called mNT5E
T1 sequence: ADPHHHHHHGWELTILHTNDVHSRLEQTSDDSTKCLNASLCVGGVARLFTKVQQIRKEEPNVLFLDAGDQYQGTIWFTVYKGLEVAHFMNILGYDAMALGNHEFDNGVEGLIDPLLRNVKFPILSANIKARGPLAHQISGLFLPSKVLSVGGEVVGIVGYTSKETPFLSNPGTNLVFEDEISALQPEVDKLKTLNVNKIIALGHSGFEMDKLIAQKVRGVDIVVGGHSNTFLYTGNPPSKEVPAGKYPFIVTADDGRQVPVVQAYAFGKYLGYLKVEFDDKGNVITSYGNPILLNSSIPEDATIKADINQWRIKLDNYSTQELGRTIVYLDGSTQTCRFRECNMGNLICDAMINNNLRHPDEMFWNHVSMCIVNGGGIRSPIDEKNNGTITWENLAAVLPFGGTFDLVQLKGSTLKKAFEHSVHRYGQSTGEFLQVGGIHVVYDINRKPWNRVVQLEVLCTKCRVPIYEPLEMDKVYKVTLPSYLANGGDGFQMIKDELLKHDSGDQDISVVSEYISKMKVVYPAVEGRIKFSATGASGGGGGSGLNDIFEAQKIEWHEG

T2: Full-length human NT5E (recombinant, in-house) (human, UniProt P21589 27-549)
T2 construct: also called hNT5E; hNT5EWT
T2 sequence: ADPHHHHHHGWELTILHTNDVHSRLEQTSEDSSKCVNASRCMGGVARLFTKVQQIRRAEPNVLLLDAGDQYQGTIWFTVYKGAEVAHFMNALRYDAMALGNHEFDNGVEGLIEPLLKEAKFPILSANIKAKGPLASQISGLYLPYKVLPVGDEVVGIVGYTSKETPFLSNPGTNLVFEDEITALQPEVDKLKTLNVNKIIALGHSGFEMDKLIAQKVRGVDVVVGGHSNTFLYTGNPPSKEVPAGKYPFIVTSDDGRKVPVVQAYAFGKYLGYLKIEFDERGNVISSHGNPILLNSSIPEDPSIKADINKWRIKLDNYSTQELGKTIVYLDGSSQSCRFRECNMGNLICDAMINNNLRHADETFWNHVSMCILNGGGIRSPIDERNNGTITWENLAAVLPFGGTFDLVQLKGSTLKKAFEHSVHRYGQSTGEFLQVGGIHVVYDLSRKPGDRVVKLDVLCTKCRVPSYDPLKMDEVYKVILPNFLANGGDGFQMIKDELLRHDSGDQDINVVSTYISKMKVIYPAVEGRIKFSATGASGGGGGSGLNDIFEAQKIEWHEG

T3: human NT5E expressed on MDA-MB-231 cells (human, UniProt P21589 27-549)
T3 construct: whole, on cells; also called NT5E-expressing MDA-MB-231 cells; CD73
T3 sequence (looked up): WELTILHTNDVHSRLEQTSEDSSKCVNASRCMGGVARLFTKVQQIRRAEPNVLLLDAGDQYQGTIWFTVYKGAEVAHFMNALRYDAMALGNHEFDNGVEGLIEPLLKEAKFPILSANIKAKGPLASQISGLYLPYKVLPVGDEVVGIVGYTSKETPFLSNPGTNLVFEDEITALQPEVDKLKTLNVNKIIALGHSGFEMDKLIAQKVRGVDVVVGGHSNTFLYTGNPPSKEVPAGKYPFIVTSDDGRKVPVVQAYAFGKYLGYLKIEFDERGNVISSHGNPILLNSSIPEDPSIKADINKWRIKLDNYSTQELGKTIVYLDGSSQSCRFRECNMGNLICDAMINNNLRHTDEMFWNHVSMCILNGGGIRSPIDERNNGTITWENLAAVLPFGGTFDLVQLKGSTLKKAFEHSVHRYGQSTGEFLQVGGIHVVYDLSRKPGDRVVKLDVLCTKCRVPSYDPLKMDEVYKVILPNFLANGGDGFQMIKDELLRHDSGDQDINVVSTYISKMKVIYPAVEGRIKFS


Tests used:
[1] = target: T1, Full-length murine NT5E (recombinant); experiment: SPR, His-captured NT5E, no ATP
Procedure: (§1) All SPR experiments were performed at 25° C. using MASS-1 (Bruker) instrument. hNT5E, mNT5E and cNT5E were immobilized onto a nitrilotriacetic acid (NTA) sensor chip via His-tag. For kinetic experiments, after ligand immobilization, 2-fold serial dilutions of the Fabs were injected. After double-reference subtraction data were analyzed with BiaEvaluation (GE Healthcare) or Sierra Analyser (Bruker) software. The experiments were carried in buffers in presence and absence of 1 mM ATP to compare the kinetic parameters of the Fabs binding to closed and open form of NT5E.

[2] = target: T2, Full-length human NT5E (recombinant, …); experiment: SPR, His-captured NT5E, no ATP
Procedure: as §1

[3] = target: T1, Full-length murine NT5E (recombinant); experiment: SPR, His-captured NT5E, 1 mM ATP
Procedure: as §1

[4] = target: T2, Full-length human NT5E (recombinant, …); experiment: SPR, His-captured NT5E, 1 mM ATP
Procedure: as §1

[5] = target: T3, human NT5E expressed on MDA-MB-231 cells; experiment: flow cytometry on MDA-MB-231 cells, 1 mM ATP
Procedure: (§2) Flow cytometry analysis of antibodies binding to human NT5E expressed on MDA-MB-231 cells in ATP-free condition (black) or in 1 mM ATP (red). Top panel: (left) 1780 Fab and (right) 1780 IgG titrations. […] Binding was measured at the indicated range of antibody concentrations and is expressed as mean±st. dev of median fluorescence intensity (MFI) of 1-2 replicates. Data were analyzed using OriginLab, and EC₅₀ values are shown next to the fitted curves.
(§3) Human MDA-MB-231 cells and murine 4T1 cells were grown to 90% confluency, detached with 5 mM EDTA for 15 min at 37° C. and then resuspended in 37° C. lx PBS (#10010031, Gibco) supplemented with 1% FBS and 1OpM ZnCl2. Separate working buffers (WB) of PBS and 1% FBS with or without fixed nucleotide concentrations were used throughout all washing steps to maintain constant condition. In 96-well plates (#3799, Costar), 0.2×10⁶ cells were added per well. The plates were spun at 500×g for 5 min and the supernatant was removed. Anti-NT5E antibodies were diluted to the desired concentration in 100 μL WB, added to the cells and the plates were incubated for 20 min at 37° C. Plates were spun and cells were washed twice with WB then spun a second time. Cells were stained with 100 μL of secondary antibody (Alexa Fluor 647 AffiniPure Goat Anti-Human IgG, F(ab′)2 fragment specific, #109-605-006, Jackson, 1:200) dilution and plates were incubated for 20 min at 37° C. Cells were washed twice with WB then fixed on ice with WB supplemented with 0.5% PFA. Fixing solution was removed by centrifugation and cells were resuspended in cold 1× PBS. Samples were analyzed by flow cytometry using CytoFLEX (Beckman Coulter) and mean fluorescence intensity (MFI) data was extracted using FlowJo software. Resulting binding data was plotted using OriginLab.

[6] = target: T3, human NT5E expressed on MDA-MB-231 cells; experiment: cell-based or functional assay
[7] = target: T3, human NT5E expressed on MDA-MB-231 cells; experiment: flow cytometry on MDA-MB-231 cells, 1 mM ATP; remark: listed apart in the source
Procedure: as §2, §3

[8] = target: T2, Full-length human NT5E (recombinant, …); experiment: SPR, hNT5E-6xHis on NTA chip, primary Fab injection; Fab concentration and ATP condition not given
Procedure: After incubation, the remaining NT5E is probed with αStrep-HRP Ab. If there is competition for binding to NT5E, then a decrease in signal would be expected.
as §1

[9] = target: T1, Full-length murine NT5E (recombinant); experiment: SPR, His-captured NT5E, no ATP (* Data generated poor fits)
Procedure: as §1

[10] = target: T3, human NT5E expressed on MDA-MB-231 cells; experiment: cell-based or functional assay; remark: listed apart in the source

Binder | Kd [1] [nM] | koff [1] [s⁻¹] | kon [1] [M⁻¹ s⁻¹] | Kd [2] [nM] | koff [2] [s⁻¹] | kon [2] [M⁻¹ s⁻¹] | Kd [3] [nM] | koff [3] [s⁻¹] | kon [3] [M⁻¹ s⁻¹] | Kd [4] [nM] | koff [4] [s⁻¹] | kon [4] [M⁻¹ s⁻¹] | EC50 [5] [nM] | IC50 of NT5E phosphate production on MDA-MB-231 cells, +500 µM ATP [6] [nM] | EC50 [7] [nM] | binding result [8] | Kd [9] [nM] | IC50 of NT5E activity on MDA-MB-231 cells, no ATP [10] [nM] | IC50 of NT5E activity on MDA-MB-231 cells, with ATP [10] [nM]
1789 AM32 Fab (Fab, V domains shown, also called Fab32) VH: EVQLVESGGGLVQPGGSLRLSCAASGFNVSYSSIHWVRQAPGKGLEWVARIRGNEGDTYYADSVKGRFTISADTSKNTAYLQMNSLRAEDTAVYYCARNYWGWYPFYYFAFDYWGQGTLVTV VL: DIQMTQSPSSLSASVGDRVTITCRASQSVSSAVAWYQQKPGKAPKLLIYSASSLYSGVPSRFSGSRSGTDFTLTISSLQPEDFATYYCQQGWDYPITFGQGTKVEIKR | 150 | 0.011 | 78000 | 86 | 0.0091 | 110000 | 15 | 0.0028 | 190000 | 15 | 0.0042 | 270000 | – | – | – | – | – | – | –
1780 IgG (antibody, V domains shown) VH: EVQLVESGGGLVQPGGSLRLSCAASGFNFYSYSIHWVRQAPGKGLEWVASISSSSGYTYYADSVKGRFTISADTSKNTAYLQMNSLRAEDTAVYYCARYSWWGWHMEGWWGYMNAFDYWGQGTLVTVSS VL: DIQMTQSPSSLSASVGDRVTITCRASQSVSSAVAWYQQKPGKAPKLLIYSASSLYSGVPSRFSGSRSGTDFTLTISSLQPEDFATYYCQQAHPKPITFGQGTKVEIKR | – | – | – | – | – | – | – | – | – | – | – | – | 28 | 50.5 | 19.6 | – | – | – | –
1557 Fab (Fab, V domains shown) VH: EVQLVESGGGLVQPGGSLRLSCAASGFNVYYSSIHWVRQAPGKGLEWVASISSSSGSTSYADSVKGRFTISADTSKNTAYLQMNSLRAEDTAVYYCARYGWWEYGYGGWWHPALDYWGQGTLVTV VL: DIQMTQSPSSLSASVGDRVTITCRASQSVSSAVAWYQQKPGKAPKLLIYSASSLYSGVPSRFSGSRSGTDFTLTISSLQPEDFATYYCQQVWWGPITFGQGTKVEIKR | – | – | – | – | – | – | – | – | – | – | – | – | – | – | – | binds | – | – | –
1789 AM42 Fab (Fab, V domains shown) VH: EVQLVESGGGLVQPGGSLRLSCAASGFNVSYSSIHWVRQAPGKGLEWVAKIRGGHQDTHYADSVKGRFTISADTSKNTAYLQMNSLRAEDTAVYYCARNYWGWYPFYYFAFDYWGQGTLVTV VL: DIQMTQSPSSLSASVGDRVTITCRASQSVSSAVAWYQQKPGKAPKLLIYSASSLYSGVPSRFSGSRSGTDFTLTISSLQPEDFATYYCQQGWDYPITFGQGTKVEIKR | 63 | 0.012 | 190000 | 38 | 0.0067 | 180000 | 12 | 0.0029 | 250000 | 11 | 0.0036 | 320000 | – | – | – | – | – | – | –
1789 AM39 Fab (Fab, V domains shown) VH: EVQLVESGGGLVQPGGSLRLSCAASGFNVSYSSIHWVRQAPGKGLEWVASIRGAGSDTRYADSVKGRFTISADTSKNTAYLQMNSLRAEDTAVYYCARNYWGWYPFYYFAFDYWGQGTLVTV VL: DIQMTQSPSSLSASVGDRVTITCRASQSVSSAVAWYQQKPGKAPKLLIYSASSLYSGVPSRFSGSRSGTDFTLTISSLQPEDFATYYCQQGWDYPITFGQGTKVEIKR | – | 0.013 | 140000 | 35 | 0.0099 | 280000 | 12 | 0.0035 | 290000 | 7.9 | 0.0039 | 490000 | – | – | – | – | 99 | – | –
Medi9447 IgG (antibody, V domains shown) VH: EVQLLESGGGLVQPGGSLRLSCAASGFTFSSYAYSWVRQAPGKGLEWVSAISGSGGRTYYADSVKGRFTISRDNSKNTLYLQMNSLRAEDTAVYYCARLGYGRVDEWGRGTLVTVSS VL: QSVLTQPPSASGTPGQRVTISCSGSLSNIGRNPVNWYQQLPGTAPKLLIYLDNLRLSGVPDRFSGSKSGTSASLAISGLQSEDEADYYCATWDDSHPGWTFGGGTKLTVLG | – | – | – | – | – | – | – | – | – | – | – | – | – | – | – | – | – | 0.3 | 1
